Assay: yeast display, Sf9 membrane polyspecificity reagent, FACS + sequencing; frameworks hold sequencing errors
Procedure, shortened: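 Nanobodies came from a synthetic yeast display library in Saccharomyces cerevisiae BJ5465, induced with galactose for 36–48 hours and stained for 1 hour at 4 °C with 10% biotinylated, detergent-solubilized Sf9 membrane reagent. Cells were enriched on streptavidin microbeads and then FACS-sorted, with low and high (top ~1%) gates set on anti-HA fluorescence for expression and streptavidin fluorescence for reagent binding. Each polyreactivity label reflects the gate a clone came from. Genes were amplified by colony PCR, sequenced by MiSeq 2 × 250 and filtered by CDR length.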

| Sequence | polyreactivity (PSR sort gate) |
| --- | --- |
| QVQLEESGGGLVQAGGSLRLSCAATGFIFRGYAMGWYRPAPGKERELVAAITSSGGDTYYADSVKGRFTISRDNAKNTVYLQMNSLKPEDTAVYYCNARDYASGTEGDYWGQGTQVTVSS | low polyreactivity |
| QVQLEESGGGLVQAGGSLRLSCAATGSTFGYAMGWYSQATGKEGEWVAALTSTGGSTYYADSLKGRFTISRDKAKNTVDLQMNSLKPYDTAVYYCAADAYWIRSRFLYRIRYNYWGQGTQVTVSS | high polyreactivity |
| QVQLEESGGGLVQAGGSLRLSCAATGSTIPYYAMGWYRQAPGKERELVARITSGDRTFYADSVKGRFTISRDNAKNTVYLQMNSLKPEDTAVYFCNAQVHYYSWYGYWGQGTQVTVSS | high polyreactivity |
| QVQLEESGGGLVQAGGSLRLSCAAYGFTIVGNTMGWYRQAPGKERELVASINTNGGSTYYADSVKGRFTISRDNAKNTVYLQMNSLKPEDTAVYYCNARSWYPYDYWGQGTQVTVSS | low polyreactivity |
| QVQLEESGGGLVQAGGSLRLSCAAYGSTFSYAMGWYRQAPGKERELVAAITIGGRTSYADSVKGRFTISRDNAKNTVYLQMSSLKPEDTAVYYCAADDLPGMDYWGQGTQVTVSS | low polyreactivity |
| QVQLEESGGGLVQAGGSLRLSSAASGRIFRAYAMGRYRQAPGKERELVAAITSGGGSTYYADSVKGRFTISRHNAKNTVYLQMNSLKPEDTAVYYSAAKSSRIAYSSWFYYATFDYWGQGTQVTVSS | high polyreactivity |
| QVQLEESGGGLVQAGGSLRLSWAASGSTFQSYAMGWYRQAPGKERELVAVIDSGGRTYYADSVKGRFTISRDNAKNTVYLQMNSLKPEDTAVYYCATVPGYSLYDLIVYWGQGTQVTVSS | high polyreactivity |
| QVQLEESGGGLVQSGGSLRLSCAASGSIFYGYTMGWYRQAPGKEMEFVAAITGSGGSTYFADSVKGRFTISRDNAKKTVYLQMNSLKPEDTSVYYCAARRYVNRRYDYWGQGTQVTVSS | high polyreactivity |
| QVQLEESGGRLVQAGGSLRLSCAASGSTFITNAMGWYRQAPGKERELVAAITYSTGGTYYADSVKGRFTISRDNAKNTVYLQMNSLKPEDTAVYYCAALLYFFLYDYWGHGTQVTVSS | low polyreactivity |
| QVQLEESGGSLVQAGGSLRLSCAASGRTFTVNDMGWYRQAPGKERELVADIRGSGVSTSYADSVKGRFTISRDNAKNTVYLQMNSLKPADTAVYYCATDPVKSGYQRYYYWGQGTHVTVSS | low polyreactivity |
| QVQLEESGRGLVQAGGSLRLSCAASGFTFRIYAMGWYRQAPGKGREFVAAITWSSGSTYYADSVKGRFTISRDNAKITVYLQMNSLKPEDTAVYYCAATYRFFPPRYYYWGQGTQVTVSS | high polyreactivity |
| QVQLEESGRGLVQAGGSLRLSCAASGRTFAYYAMGWYRQAPGKERELVAAITSGGSTNYADSVKGRFTISRDNAKNTVYLQMNSLKPEDTAVYYCNARFRWPWSTYDYWGQGTQVTVSS | high polyreactivity |
| QVQLEESGRGLVQAGGSLRLSCAASGSTFWSYAMGWYRQAPGKERELVATITRAGTTNYADSVKGRFTISRDNAKNTVYLQMNSLKPVDTAVFYCATRRPIYVRAYDYWGQGTQVTVSS | high polyreactivity |
| QVQLEESGRGLVQAGGSLRLSCAASGSTSGIYAMGWYRQAPGKERELVAAITWSGGSTNYADSVKGRFTISRDNAKNTVYLQMNSLKPVDTAVYYCAAEFYSYKYPDFDYWGQGTQVTVSS | low polyreactivity |
| QVQLEESGRGLVQAGGSLRLSCASSGIIFDGNAMGWYRQAAGKERELVAAITGGGSTDNADSVKGRFTISRDNGKYTVYLQMNSLKPEDTAVYYCAAVRSYYPGYYLGQGTQVTVSS | high polyreactivity |
| QVQLEESRGCLVQAGGSLRLSCAASGSIFYVYAMGWYRQAPGKERELVAAINTSGGSTYADSVMGRFTISRDNAKNTVYLQMNILIPEDNAFYYCAADGYYEYTWGEYDSWGQGTQVTVSS | low polyreactivity |
| QVQLEESRGGLVQAGGSLRLSCAASGFIIKHYAMGWYRQAPRKERELVAAISKRGGSTYYADSVKGRFTISRDNAKNTVYLQMNSLKPEDTAVYYCNAYLYVWHYPSGDEYDYWGQGTQVTVSS | high polyreactivity |
